Reference: patent US20140274782A1 (Stanford University, published 2014)

Experiments:
Assay in all cases: ProtoArray, GST-treated control array;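 also: human protein microarray (about 9500 recombinant proteins) incubated overnight with GST alone plus SAM cofactor as the negative control for G9a SET domain methylation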
[1] = molecular target: T1, ZBP1-Z-DNA binding protein 1 (ZBP1) (human, UniProt Q9H171 1-429, limits assumed)
T1 sequence (looked up): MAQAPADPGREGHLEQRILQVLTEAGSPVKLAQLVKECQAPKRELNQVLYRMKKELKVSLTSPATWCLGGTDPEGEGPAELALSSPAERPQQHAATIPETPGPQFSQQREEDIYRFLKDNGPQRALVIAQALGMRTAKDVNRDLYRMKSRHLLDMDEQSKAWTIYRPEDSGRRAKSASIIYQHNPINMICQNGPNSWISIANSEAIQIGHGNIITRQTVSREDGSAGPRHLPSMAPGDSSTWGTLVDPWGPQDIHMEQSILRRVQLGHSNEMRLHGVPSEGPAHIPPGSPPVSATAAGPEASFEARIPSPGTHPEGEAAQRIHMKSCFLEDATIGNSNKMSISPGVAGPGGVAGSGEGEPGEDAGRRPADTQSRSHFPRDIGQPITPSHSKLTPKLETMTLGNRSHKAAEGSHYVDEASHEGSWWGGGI

[2] = molecular target: T2, CUTC-cutC copper transporter homolog (E. coli) (CUTC) (human, UniProt Q9NTM9 1-273)
T2 sequence (looked up): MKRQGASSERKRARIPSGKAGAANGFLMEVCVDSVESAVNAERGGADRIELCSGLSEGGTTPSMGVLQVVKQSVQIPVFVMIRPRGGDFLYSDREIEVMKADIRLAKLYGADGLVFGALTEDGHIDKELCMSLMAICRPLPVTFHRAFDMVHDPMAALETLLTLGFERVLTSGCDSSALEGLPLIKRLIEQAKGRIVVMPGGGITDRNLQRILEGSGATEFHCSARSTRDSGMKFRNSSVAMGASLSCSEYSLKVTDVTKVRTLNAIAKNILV

[3] = molecular target: T3, CNTD1-Cyclin N-terminal domain-containing protein 1 (human, UniProt Q8N815 1-330)
T3 sequence: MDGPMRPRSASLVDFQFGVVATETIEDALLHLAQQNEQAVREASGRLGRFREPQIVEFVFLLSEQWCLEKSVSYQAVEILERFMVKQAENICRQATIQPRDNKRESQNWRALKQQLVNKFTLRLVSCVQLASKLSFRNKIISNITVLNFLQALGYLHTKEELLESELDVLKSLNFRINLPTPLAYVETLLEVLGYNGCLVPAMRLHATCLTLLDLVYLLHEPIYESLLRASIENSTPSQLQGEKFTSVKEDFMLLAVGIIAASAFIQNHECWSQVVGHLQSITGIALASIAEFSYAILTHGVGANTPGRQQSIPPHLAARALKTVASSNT

[4] = molecular target: T4, RAB33B-RAB33B, member RAS oncogene family (RAB33B) (human, UniProt Q9H082 1-229)
T4 sequence (looked up): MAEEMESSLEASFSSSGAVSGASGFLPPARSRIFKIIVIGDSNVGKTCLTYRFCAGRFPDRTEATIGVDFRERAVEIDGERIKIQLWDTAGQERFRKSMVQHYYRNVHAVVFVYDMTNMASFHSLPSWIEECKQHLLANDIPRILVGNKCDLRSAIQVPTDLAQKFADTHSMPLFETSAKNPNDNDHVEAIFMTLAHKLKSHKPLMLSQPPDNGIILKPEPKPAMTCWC

[5] = molecular target: T5, UBE2S-Ubiquitin-conjugating enzyme E2 S (human, UniProt Q16763 1-222)
T5 sequence (looked up): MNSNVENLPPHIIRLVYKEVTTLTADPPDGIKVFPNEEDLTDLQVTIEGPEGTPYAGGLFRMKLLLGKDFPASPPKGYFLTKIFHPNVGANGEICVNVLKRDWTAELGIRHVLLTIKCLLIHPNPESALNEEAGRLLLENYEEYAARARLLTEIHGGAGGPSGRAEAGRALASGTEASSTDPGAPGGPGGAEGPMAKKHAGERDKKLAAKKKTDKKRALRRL

[6] = molecular target: ARL6IP1-ADP-ribosylation factor-like 6 interacting protein 1 (ARL6IP1) (human, UniProt Q15041 1-203, limits assumed)
[7] = molecular target: T6, PPIL5-Peptidylprolyl isomerase-like 5 (human, UniProt Q96L50 1-414, limits assumed)
T6 sequence (looked up): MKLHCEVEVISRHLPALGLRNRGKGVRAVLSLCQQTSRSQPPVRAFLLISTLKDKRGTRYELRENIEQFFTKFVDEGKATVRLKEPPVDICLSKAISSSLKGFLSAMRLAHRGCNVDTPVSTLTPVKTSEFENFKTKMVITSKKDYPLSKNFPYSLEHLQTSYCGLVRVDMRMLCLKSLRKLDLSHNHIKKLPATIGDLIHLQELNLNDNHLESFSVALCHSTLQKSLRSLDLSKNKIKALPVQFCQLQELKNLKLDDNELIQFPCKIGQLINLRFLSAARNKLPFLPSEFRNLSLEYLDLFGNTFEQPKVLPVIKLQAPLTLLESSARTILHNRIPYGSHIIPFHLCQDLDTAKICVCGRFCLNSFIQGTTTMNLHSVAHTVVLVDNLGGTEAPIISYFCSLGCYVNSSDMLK

[8] = molecular target: PSMA8-proteasome (prosome, macropain) subunit, alpha type, 8 (PSMA8) (human, UniProt Q8TAA3 1-256, limits assumed)
[9] = molecular target: TMEM97-transmembrane protein 97 (TMEM97) (human, UniProt Q5BJF2 1-176)
Chain of TMEM97-transmembrane protein 97 (TMEM97) (Q5BJF2 whole entry): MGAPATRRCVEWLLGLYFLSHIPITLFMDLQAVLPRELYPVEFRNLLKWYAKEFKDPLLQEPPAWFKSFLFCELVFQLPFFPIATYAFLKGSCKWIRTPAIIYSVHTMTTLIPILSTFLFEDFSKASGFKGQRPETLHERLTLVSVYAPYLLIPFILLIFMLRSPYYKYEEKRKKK

Chain of PSMA8-proteasome (prosome, macropain) subunit, alpha type, 8 (PSMA8) (Q8TAA3 whole entry): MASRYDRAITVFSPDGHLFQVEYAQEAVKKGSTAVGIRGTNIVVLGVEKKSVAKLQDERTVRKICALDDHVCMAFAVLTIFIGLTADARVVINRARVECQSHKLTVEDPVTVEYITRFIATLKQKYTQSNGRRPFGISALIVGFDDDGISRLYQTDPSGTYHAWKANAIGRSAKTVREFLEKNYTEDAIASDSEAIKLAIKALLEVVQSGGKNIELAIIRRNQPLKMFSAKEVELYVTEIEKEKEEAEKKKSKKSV
Chain of ARL6IP1-ADP-ribosylation factor-like 6 interacting protein 1 (ARL6IP1) (Q15041 whole entry): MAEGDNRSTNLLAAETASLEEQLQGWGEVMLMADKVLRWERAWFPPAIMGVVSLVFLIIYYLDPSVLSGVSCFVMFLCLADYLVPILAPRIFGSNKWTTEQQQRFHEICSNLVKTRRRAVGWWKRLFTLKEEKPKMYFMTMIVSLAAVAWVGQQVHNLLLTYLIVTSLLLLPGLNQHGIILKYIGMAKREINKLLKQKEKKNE

GST Average SNR [1]: 0.628
GST Average SNR [2]: 0.667
GST Average SNR [3]: 0.567
GST Average SNR [4]: 0.0035
GST Average SNR [5]: 0.283
GST Average SNR [6]: 1.05
GST Average SNR [7]: -0.512
GST Average SNR [8]: -0.846
GST Average SNR [9]: -1.53
B1: 3× Flag-3×MBT (designed binder)
chain: EEWSSSQPATGEKKECWSWESYLEEQKAITAPVSLFQDSQAVTHNKNGFKLGMKLEGIDPQHPSMYFILTVAEVCGYRLRLHFDGYSECHDFWVNANSPDIHPAGWFEKTGHKLQPPKGYKEEEFSWSQYLRSTRAQAAPKHLFVSQSHSPPPLGFQVGMKLEAVDRMNPSLVCVASVTDVVDSRFLVHFDNWDDTYDYWCDPSSPYIHPVGWCQKQGKPLTPPQDYPDPDNFCWEKYLEETGASAVPTWAFKVRPPHSFLVNMKLEAVDRRNPALIRVASVEDVEDHRIKIHFDGWSHGYDFWIDADHPDIHPAGWCSKTGHPLQPPLGPREPSSASPGG
notes: also called Flag-tagged 3×MBT; 3xFlag-3xMBT; not shown: made by PreScission cleavage of GST-3× Flag-3×MBT
